Measured values published in patent US20060252724A1 (Pfizer, published 2006).

Target: T1, rhBMP-2 (recombinant human bone morphogenetic protein-2) (human, UniProt P12643 283-396)
T1 construct: Control protein on the Western blot; Analysed on reducing SDS-PAGE
Experiment: co-immunoprecipitation

T1 sequence (P12643 283-396 limits assumed): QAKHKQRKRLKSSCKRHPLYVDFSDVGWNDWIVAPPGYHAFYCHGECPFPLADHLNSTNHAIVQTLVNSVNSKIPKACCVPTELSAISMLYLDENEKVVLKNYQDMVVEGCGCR

B1: retrovirally produced BMP-3 (from pBABE-BMP3, full-length human BMP-3 cDNA, secreted by infected W-20-17 cells) (ligand)
chain: QWIEPRNCARRYLKVDFADIGWSEWIISPKSFDAYYCSGACQFPMPKSLKPSNHATIQSIVRAVGVVPGIPEPCCVPEKMSSLSILFFDENKNVVLKVYPNMTVESCACR
notes: Expressed from the full-length human cDNA; The secreted, processed form has a most abundant monomer of about 28 kD, with glycosylated or alternatively processed forms; also called vBMP3; BMP-3 CM
B1: no binding.
